Measured values as given in PMC9278407, “Structure and regulation of the nuclear exosome targeting complex guides RNA substrates to the exosome” (Molecular Cell, 2022).
Each block holds one binder with its values, some of them ahead of it.

Key:
[1] = target: the molecule itself; experiment: SEC; pre-assembled complexes of full-length MTR4, RBM7(RRM) and N-terminally truncated ZCCHC8 constructs ending at 337; Superdex 200 Increase 3.2/300; 20 mM Hepes-NaOH pH 7.5, 150 mM NaCl, 2 mM DTT; 300 pmol in 30 μL injected; peak fractions on SDS-PAGE
[2] = target: T1, MTR4 (full length) (human, UniProt P42285 1-1042); experiment: as above; conditions: both partners purified
T1 construct: MTR4, human, full length; also called MTR4A; MTR4B; not shown: His6, N-terminal, cleaved; GST, N-terminal, cleaved
T1 sequence (looked up): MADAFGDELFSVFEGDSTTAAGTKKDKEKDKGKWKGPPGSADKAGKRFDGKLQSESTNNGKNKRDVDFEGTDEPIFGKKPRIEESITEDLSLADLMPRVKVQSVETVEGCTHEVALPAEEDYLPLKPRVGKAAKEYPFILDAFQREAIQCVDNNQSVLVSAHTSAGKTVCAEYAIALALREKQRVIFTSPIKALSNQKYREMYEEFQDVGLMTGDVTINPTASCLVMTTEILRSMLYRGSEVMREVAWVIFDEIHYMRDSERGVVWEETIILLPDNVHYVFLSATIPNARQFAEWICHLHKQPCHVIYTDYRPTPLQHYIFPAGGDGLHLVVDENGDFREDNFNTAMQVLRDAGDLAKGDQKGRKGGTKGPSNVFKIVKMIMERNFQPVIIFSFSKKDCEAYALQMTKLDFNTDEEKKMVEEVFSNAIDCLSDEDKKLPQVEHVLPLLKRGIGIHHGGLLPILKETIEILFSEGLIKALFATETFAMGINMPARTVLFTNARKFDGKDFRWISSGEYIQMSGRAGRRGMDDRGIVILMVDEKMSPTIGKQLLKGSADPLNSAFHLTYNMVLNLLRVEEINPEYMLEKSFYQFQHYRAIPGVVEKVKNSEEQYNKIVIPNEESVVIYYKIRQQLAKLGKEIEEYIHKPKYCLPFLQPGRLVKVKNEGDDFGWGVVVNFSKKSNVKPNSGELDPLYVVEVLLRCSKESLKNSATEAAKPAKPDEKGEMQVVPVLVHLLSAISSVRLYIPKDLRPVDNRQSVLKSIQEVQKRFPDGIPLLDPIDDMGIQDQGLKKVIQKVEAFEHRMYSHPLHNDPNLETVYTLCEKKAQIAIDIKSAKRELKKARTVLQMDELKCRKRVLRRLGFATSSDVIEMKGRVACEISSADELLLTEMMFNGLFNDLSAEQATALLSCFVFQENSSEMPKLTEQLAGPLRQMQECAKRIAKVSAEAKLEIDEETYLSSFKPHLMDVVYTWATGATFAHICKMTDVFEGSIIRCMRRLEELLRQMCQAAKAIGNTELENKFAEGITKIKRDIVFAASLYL

[3] = target: T2, eYFP-(GS)3-MTR4(75-1042) (human, UniProt P42285 75-1042); experiment: MST
T2 chain: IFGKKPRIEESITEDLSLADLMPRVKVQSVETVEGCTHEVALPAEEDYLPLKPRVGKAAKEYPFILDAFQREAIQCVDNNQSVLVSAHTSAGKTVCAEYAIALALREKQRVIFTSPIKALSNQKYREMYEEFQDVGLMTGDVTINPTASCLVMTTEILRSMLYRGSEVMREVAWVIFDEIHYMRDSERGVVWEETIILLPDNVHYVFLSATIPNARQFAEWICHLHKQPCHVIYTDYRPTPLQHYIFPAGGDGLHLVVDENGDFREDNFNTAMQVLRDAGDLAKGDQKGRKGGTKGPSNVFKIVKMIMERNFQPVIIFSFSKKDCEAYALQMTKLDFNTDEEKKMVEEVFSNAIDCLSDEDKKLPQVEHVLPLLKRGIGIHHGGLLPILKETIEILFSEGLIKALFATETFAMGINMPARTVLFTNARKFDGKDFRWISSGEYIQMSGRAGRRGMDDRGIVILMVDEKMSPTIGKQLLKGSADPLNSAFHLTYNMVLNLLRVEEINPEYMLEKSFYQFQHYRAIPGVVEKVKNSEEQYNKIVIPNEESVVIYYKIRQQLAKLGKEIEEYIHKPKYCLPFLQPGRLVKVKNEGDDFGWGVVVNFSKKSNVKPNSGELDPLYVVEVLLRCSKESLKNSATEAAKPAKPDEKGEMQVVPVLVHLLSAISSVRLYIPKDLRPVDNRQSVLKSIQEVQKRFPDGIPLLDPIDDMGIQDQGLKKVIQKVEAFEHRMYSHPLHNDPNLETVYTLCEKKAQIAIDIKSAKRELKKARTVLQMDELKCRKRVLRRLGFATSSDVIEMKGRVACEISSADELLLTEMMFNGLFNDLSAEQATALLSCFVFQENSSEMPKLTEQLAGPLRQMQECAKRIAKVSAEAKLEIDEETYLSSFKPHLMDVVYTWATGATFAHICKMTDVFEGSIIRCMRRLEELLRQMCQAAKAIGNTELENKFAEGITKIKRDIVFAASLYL

[4] = target: T3, eYFP-(GS)3-MTR4(75-1042) (human, UniProt P42285 75-1042); experiment: MST; eYFP-(GS)3-MTR4(75-1042) fixed at 50 nM, increasing ZCCHC8/RBM7; 50 mM HEPES-NaOH pH 7.5, 150 mM NaCl, 2 mM DTT, 10% glycerol, 0.1% Pluronic F-127; room temperature; triplicates; conditions: both partners purified
T3 construct: MTR4, human, residues 75-1042, joined to eYFP by a (GS)3 linker; also called eYFP-tagged MTR4; source: E. coli BL21 Star (DE3) pRARE, purified; not shown: eYFP, N-terminal, kept
T3 sequence (looked up): T2 chain

[5] = target: the molecule itself; experiment: cryo-EM structure; NEXT^S at 15 μM with 1.2 molar excess RNA-U20 and 2 mM AMPPNP, 20 mM HEPES-NaOH pH 7.5, 150 mM NaCl, 2 mM DTT, 2 mM MgCl2; cross-linked with 1 mM BS3
[6] = target: T1, MTR4 (full length); experiment: as above; conditions: both partners purified
[7] = target: T1, MTR4 (full length); experiment: cryo-EM structure; NEXT^L at 2 μM with equimolar 5'-hairpin-U60 RNA and 2 mM AMPPNP, 20 mM HEPES-NaOH pH 7.5, 50 mM NaCl, 2 mM DTT, 2 mM MgCl2; cross-linked with 0.03% glutaraldehyde; conditions: both partners purified

B1: ZCCHC8 (residues 91-337) (domain or fragment, human, UniProt Q6NZY4 91-337, looked up)
chain: DGPILQILFMNNAISKQYHQEIEEFVSNLVKRFEEQQKNDVEKTSFNLLPQPSSIVLEEDHKVEESCAIKNNKEAFSVVGSVLYFTNFCLDKLGQPLLNENPQLSEGWEIPKYHQVFSHIVSLEGQEIQVKAKRPKPHCFNCGSEEHQMKDCPMPRNAARISEKRKEYMDACGEANNQNFQQRYHAEEVEERFGRFKPGVISEELQDALGVTDKSLPPFIYRMRQLGYPPGWLKEAELENSGLALYD
notes: source: E. coli BL21 Star (DE3) pRARE, co-expressed and co-purified with RBM7(1-98); not shown: His6, N-terminal, cleaved; GST or SUMO, N-terminal, cleaved
binding result [1]: binds
binding result [2]: binds

B3: monomeric ZCCHC8(177-337)/RBM7(RRM) (complex, human)
chain 1: NFCLDKLGQPLLNENPQLSEGWEIPKYHQVFSHIVSLEGQEIQVKAKRPKPHCFNCGSEEHQMKDCPMPRNAARISEKRKEYMDACGEANNQNFQQRYHAEEVEERFGRFKPGVISEELQDALGVTDKSLPPFIYRMRQLGYPPGWLKEAELENSGLALYD
chain 2: MGAAAAEADRTLFVGNLETKVTEELLFELFHQAGPVIKVKIPKDKDGKPKQFAFVNFKHEVSVPYAMNLLNGIKLYGRPIKIQFRSGSSHAPQDVSLS
notes: RBM7, human, residues 1-98 with the RRM domain; also called monomeric ZCCHC8-RBM7 unit; source: E. coli BL21 Star (DE3) pRARE, co-expressed and co-purified; not shown: His6, N-terminal, cleaved; GST, N-terminal, cleaved; Z tag or SUMO, N-terminal, cleaved; copies: 1 + 1
binding result [4]: binds
Kd [3]: 540 nM

B4: ZCCHC8 (residues 41-337) (domain or fragment, human, UniProt Q6NZY4 41-337, looked up)
chain: ENGVGDAELRERLRQCEETIEQLRAENQELKRKLNILTRPSGILVNDTKLDGPILQILFMNNAISKQYHQEIEEFVSNLVKRFEEQQKNDVEKTSFNLLPQPSSIVLEEDHKVEESCAIKNNKEAFSVVGSVLYFTNFCLDKLGQPLLNENPQLSEGWEIPKYHQVFSHIVSLEGQEIQVKAKRPKPHCFNCGSEEHQMKDCPMPRNAARISEKRKEYMDACGEANNQNFQQRYHAEEVEERFGRFKPGVISEELQDALGVTDKSLPPFIYRMRQLGYPPGWLKEAELENSGLALYD
notes: also called ZCCHC8^S; not shown: His6, N-terminal, cleaved; GST, N-terminal, cleaved
stoichiometry N [5]: 2
binding result [6]: binds

Second part, the binder after the results:

Kd [3]: 120 nM
B2: dimeric ZCCHC8(41-337)/RBM7(RRM) (complex)
chain 1: B4 chain
chain 2: B3 chain 2

binding result [7]: binds
B5: ZCCHC8 deletion mutant Δ416-506 (natural protein, human)
chain: MAAEVYFGDLELFEPFDHPEESIPKPVHTRFKDDDGDEEDENGVGDAELRERLRQCEETIEQLRAENQELKRKLNILTRPSGILVNDTKLDGPILQILFMNNAISKQYHQEIEEFVSNLVKRFEEQQKNDVEKTSFNLLPQPSSIVLEEDHKVEESCAIKNNKEAFSVVGSVLYFTNFCLDKLGQPLLNENPQLSEGWEIPKYHQVFSHIVSLEGQEIQVKAKRPKPHCFNCGSEEHQMKDCPMPRNAARISEKRKEYMDACGEANNQNFQQRYHAEEVEERFGRFKPGVISEELQDALGVTDKSLPPFIYRMRQLGYPPGWLKEAELENSGLALYDGKDGTDGETEVGEIQQNKSVTYDLSKLVNYPGFNISTPRGIPDEWRIFGSIPMQACQQKDVFANYLTSNFQAPGVKSGSGAVDEDALTLEELEEQQRRIWAALEQAESVNSDSDVPVDTPLTGNSVASSPCPNELDLPVPEGKTSEKQTLDEPEVPEIFTKKSEAGHASSPDSEVTSLCQKEKAELAPVNTEGALLDNGSVVPNCDISNGGSQKLFPADTSPSTATKIHSPIPDMSKFATGITPFEFENMAESTGMYLRIRSLLKNSPRNQQKNKKASE
notes: ZCCHC8, human, deletion mutant lacking residues 416-506 but still including the C-terminal domain; Construct adapted from Puno and Lima (2018); also called ZCCHC8^L; hZCCHC8(Δ416-506); source: E. coli BL21 Star (DE3) pRARE, co-expressed and co-purified with RBM7(1-98); not shown: His6, N-terminal, cleaved; SUMO, N-terminal, cleaved

binding result [2]: binds
B6: ZCCHC8 (residues 177-337) (domain or fragment, human, UniProt Q6NZY4 177-337, looked up)
chain: B3 chain 1
notes: source: E. coli BL21 Star (DE3) pRARE, co-expressed and co-purified with RBM7(1-98); not shown: His6, N-terminal, cleaved; GST, N-terminal, cleaved
